Target: Dengue virus serotype 3 nonstructural protein 5 with a six-residue deletion in the priming loop (DENV3 NS5-Δ6) (dengue virus serotype 3 (DENV3))
Assay: crystal structure

Dengue virus serotype 3 nonstructural protein 5 with a six-residue deletion in the priming loop (DENV3 NS5-Δ6) (enzyme)
stoichiometry N: 2
